The results in this text go back to patent publication US20080138349A1 (MacroGenics, published 2008).

The target of test [1] is T1, FcγRIIIA (UniProt P08637 17-208, limits assumed).
T1 construct: also called CD16A
As to the kind of experiment: ELISA. On the technique in general: ELISA stands for enzyme-linked immunosorbent assay.

Test [2] addresses T1, FcγRIIIA. As to the kind of experiment: ELISA. The source holds these as a separate data set.
Test [3] addresses T2, FcγRIIB-Fc fusion protein, soluble dimeric: extracellular domain of FcγRIIB fused to the hinge-CH2-CH3 domain … (human, UniProt P31994 43-217, limits assumed).
T2 construct: extracellular domain; also called FcRIIB-Fc; FcR2B; not shown: human IgG2 hinge-CH2-CH3
T2 sequence (looked up): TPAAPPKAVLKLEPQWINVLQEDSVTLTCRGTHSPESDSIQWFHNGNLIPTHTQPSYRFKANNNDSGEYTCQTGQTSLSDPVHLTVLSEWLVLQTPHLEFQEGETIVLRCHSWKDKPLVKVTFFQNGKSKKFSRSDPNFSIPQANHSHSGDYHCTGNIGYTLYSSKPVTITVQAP
In words: BIAcore, ch4-4-20.

Test [4] concerns the target T3, 2aR131Fcagl (FcγRIIA 131R-Fc) (UniProt P12318 34-217, limits assumed).
T3 construct: not shown: Fc part; label Fcagl is not explained
T3 sequence (looked up): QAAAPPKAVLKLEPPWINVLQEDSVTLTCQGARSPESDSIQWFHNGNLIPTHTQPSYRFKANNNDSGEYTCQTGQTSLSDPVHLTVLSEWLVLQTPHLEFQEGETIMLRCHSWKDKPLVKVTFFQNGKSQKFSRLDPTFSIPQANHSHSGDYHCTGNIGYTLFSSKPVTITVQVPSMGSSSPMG
As to the kind of experiment: BIAcore, 2B6 captured by soluble CD32B.

The target in the next test is T4, FcγRIIIA 158V, soluble (UniProt P08637 17-208, limits assumed).
T4 construct: also called 3aV158
In words: BIAcore, 2B6 captured by soluble CD32B. (In general: In SPR one partner is held on a chip, and binding of the other changes the refractive index at the surface.)

Another test addresses T5, FcγRIIIA 158F, soluble (UniProt P08637 17-208, limits assumed).
T5 construct: also called 3aF158
In words: BIAcore, 2B6 captured by soluble CD32B.

For another test, the target named is T6, 2bfcagl (FcγRIIB-Fc) (UniProt P31994 43-217, limits assumed).
T6 construct: label not explained; may be m4 or an aglycosylated form of it; not shown: Fc part; label fcagl is not explained
T6 sequence (looked up): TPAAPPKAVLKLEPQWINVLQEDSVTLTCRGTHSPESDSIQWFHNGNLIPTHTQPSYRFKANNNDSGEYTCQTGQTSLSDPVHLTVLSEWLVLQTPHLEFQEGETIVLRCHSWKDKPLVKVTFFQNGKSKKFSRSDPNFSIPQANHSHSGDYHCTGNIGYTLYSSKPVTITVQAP
As to the kind of experiment: BIAcore, 2B6 captured by soluble CD32B.

For test [5], the target named is T7, 2aH131Fcagl (FcγRIIA 131H-Fc) (UniProt P12318 34-217, limits assumed).
T7 construct: also called FcγRIIA H131; not shown: Fc part; label Fcagl is not explained
T7 sequence (looked up): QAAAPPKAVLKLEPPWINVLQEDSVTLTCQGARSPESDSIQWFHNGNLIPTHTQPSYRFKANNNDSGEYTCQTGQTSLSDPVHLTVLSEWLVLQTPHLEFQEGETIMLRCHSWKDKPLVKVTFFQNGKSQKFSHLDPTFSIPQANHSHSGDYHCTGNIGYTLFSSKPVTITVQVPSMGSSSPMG
As to the kind of experiment: BIAcore, 2B6 captured by soluble CD32B.

In the next test the target is T8, C1q.
T8 construct: also called first component of the complement cascade
As to the kind of experiment: BIAcore, 2B6 captured by soluble CD32B.

In test [6] the target is T1, FcγRIIIA. As to the kind of experiment: ELISA. The source holds these as a separate data set.
The target in test [7] is T9, soluble monomeric FcγRIIIA, the extracellular region of FcγRIIIA joined to the linker-AVITAG sequence (UniProt P08637 17-208, limits assumed).
T9 construct: extracellular domain; also called FcRIIIA; FcR3A
In words: BIAcore, antibody captured on BSA-FITC.

Test [8] has as its target T2, FcγRIIB-Fc fusion protein, soluble …. In words: BIAcore.
The target in test [9] is T9, soluble monomeric FcγRIIIA, the …. As to the kind of experiment: BIAcore.
Test [10] deals with T2, FcγRIIB-Fc fusion protein, soluble …. As to the kind of experiment: ELISA of the ch4-4-20 Fc variant for FcγRIIB-Fc fusion protein, value listed beside the sensorgram.

T4 sequence (P08637 17-208 F176V limits assumed): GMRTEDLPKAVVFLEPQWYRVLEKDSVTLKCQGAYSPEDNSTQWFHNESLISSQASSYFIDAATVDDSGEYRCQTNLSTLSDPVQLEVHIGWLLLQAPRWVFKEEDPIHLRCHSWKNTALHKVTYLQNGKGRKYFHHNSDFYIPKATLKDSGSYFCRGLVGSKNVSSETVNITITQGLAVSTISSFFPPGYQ
T5 sequence (P08637 17-208 limits assumed): as the sequence (P08637 17-208 F176V limits assumed) above, with V160F counted along it
T1 sequence (P08637 17-208 limits assumed): as the sequence (P08637 17-208 F176V limits assumed) above, with V160F counted along it
T9 sequence (P08637 17-208 limits assumed): as the sequence (P08637 17-208 F176V limits assumed) above, with V160F counted along it
T8 sequence (P02745 23-245, chain 1 of 3): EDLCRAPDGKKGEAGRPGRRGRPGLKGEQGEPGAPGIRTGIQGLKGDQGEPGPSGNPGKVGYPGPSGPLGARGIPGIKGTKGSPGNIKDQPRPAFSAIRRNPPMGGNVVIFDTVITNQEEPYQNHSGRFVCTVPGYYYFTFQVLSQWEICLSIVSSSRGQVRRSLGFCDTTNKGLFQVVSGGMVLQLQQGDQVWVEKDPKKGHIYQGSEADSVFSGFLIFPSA
T8 sequence (P02746 28-253, chain 2 of 3, further chain): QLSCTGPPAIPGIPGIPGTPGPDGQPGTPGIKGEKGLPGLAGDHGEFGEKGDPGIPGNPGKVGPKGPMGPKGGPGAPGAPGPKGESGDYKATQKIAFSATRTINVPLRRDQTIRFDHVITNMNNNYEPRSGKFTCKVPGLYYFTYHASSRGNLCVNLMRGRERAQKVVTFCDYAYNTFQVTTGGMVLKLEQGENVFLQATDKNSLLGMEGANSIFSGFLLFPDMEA
T8 sequence (P02747 29-245, chain 3 of 3, further chain): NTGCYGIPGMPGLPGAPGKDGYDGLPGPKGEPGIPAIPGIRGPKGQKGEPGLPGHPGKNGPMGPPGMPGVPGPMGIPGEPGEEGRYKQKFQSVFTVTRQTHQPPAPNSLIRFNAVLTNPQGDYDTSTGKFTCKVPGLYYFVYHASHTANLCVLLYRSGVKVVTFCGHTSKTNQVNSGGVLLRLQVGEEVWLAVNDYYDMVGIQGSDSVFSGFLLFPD

B1: ch4-4-20 K288N, A330S, P396L (antibody)
chain: EPKSCDKTHTCPPCPAPELLGGPSVFLFPPKPKDTLMISRTPEVTCVVVDVSHEDPEVKFNWYVDGVEVHNANTKPREEQYNSTYRVVSVLTVLHQDWLNGKEYKCKVSNKALPSPIEKTISKAKGQPREPQVYTLPPSREEMTKNQVSLTCLVKGFYPSDIAVEWESNGQPENNYKTTPLVLDSDGSFFLYSKLTVDKSRWQQGNVFSCSVMHEALHNHYTQKSLSLSPGK
Regarding B1, the “ELISA IIIA binding vs wt” value in the test with FcγRIIIA [1] was 5 X. Besides, the “ELISA, OD” value in the test with FcγRIIIA [2] was 1 OD.

B2: ch4-4-20 S298N, K360R, N361D (antibody)
chain: EPKSCDKTHTCPPCPAPELLGGPSVFLFPPKPKDTLMISRTPEVTCVVVDVSHEDPEVKFNWYVDGVEVHNAKTKPREEQYNNTYRVVSVLTVLHQDWLNGKEYKCKVSNKALPAPIEKTISKAKGQPREPQVYTLPPSREEMTRDQVSLTCLVKGFYPSDIAVEWESNGQPENNYKTTPPVLDSDGSFFLYSKLTVDKSRWQQGNVFSCSVMHEALHNHYTQKSLSLSPGK
Consider B2, for which the “Koff WT/Mut” value in [3] came out at 0.67.

B3: ch-mAb 2B6 MgFc31/60 (P247L, D270E, N421K) (antibody)
chain: ASTKGPSVFPLAPSSKSTSGGTAALGCLVKDYFPEPVTVSWNSGALTSGVHTFPAVLQSSGLYSLSSVVTVPSSSLGTQTYICNVNHKPSNTKVDKKVEPKSCDKTHTCPPCPAPELLGGPSVFLFPPKLKDTLMISRTPEVTCVVVDVSHEEPEVKFNWYVDGVEVHNAKTKPREEQYNSTYRVVSVLTVLHQDWLNGKEYKCKVSNKALPAPIEKTISKAKGQPREPQVYTLPPSRDELTKNQVSLTCLVKGFYPSDIAVEWESNGQPENNYKTTPPVLDSDGSFFLYSKLTVDKSRWQQGKVFSCSVMHEALHNHYTQKSLSLSPGK
For B3, the koff in test [4] stood at 0.127 s⁻¹; with FcγRIIIA 158V, soluble it was 0.084 s⁻¹; with FcγRIIIA 158F, soluble, 0.238 s⁻¹; with 2bfcagl (FcγRIIB-Fc), 0.094 s⁻¹; in test [5], 0.034 s⁻¹.

B4: ch-mAb 2B6 MgFc51/60 (Q419H, P396L with D270E) (antibody)
chain: ASTKGPSVFPLAPSSKSTSGGTAALGCLVKDYFPEPVTVSWNSGALTSGVHTFPAVLQSSGLYSLSSVVTVPSSSLGTQTYICNVNHKPSNTKVDKKVEPKSCDKTHTCPPCPAPELLGGPSVFLFPPKPKDTLMISRTPEVTCVVVDVSHEEPEVKFNWYVDGVEVHNAKTKPREEQYNSTYRVVSVLTVLHQDWLNGKEYKCKVSNKALPAPIEKTISKAKGQPREPQVYTLPPSRDELTKNQVSLTCLVKGFYPSDIAVEWESNGQPENNYKTTPLVLDSDGSFFLYSKLTVDKSRWQHGNVFSCSVMHEALHNHYTQKSLSLSPGK
B4: the koff with C1q turned out to be 0.079 s⁻¹; in [4], 0.089 s⁻¹; with FcγRIIIA 158V, soluble, 0.112 s⁻¹; with FcγRIIIA 158F, soluble it was 0.293 s⁻¹; in the test with 2bfcagl (FcγRIIB-Fc), 0.077 s⁻¹; in test [5], 0.028 s⁻¹.

B5: ch-mAb 2B6 MgFc59/60 (K370E, P396L with D270E) (antibody)
chain: ASTKGPSVFPLAPSSKSTSGGTAALGCLVKDYFPEPVTVSWNSGALTSGVHTFPAVLQSSGLYSLSSVVTVPSSSLGTQTYICNVNHKPSNTKVDKKVEPKSCDKTHTCPPCPAPELLGGPSVFLFPPKPKDTLMISRTPEVTCVVVDVSHEEPEVKFNWYVDGVEVHNAKTKPREEQYNSTYRVVSVLTVLHQDWLNGKEYKCKVSNKALPAPIEKTISKAKGQPREPQVYTLPPSRDELTKNQVSLTCLVEGFYPSDIAVEWESNGQPENNYKTTPLVLDSDGSFFLYSKLTVDKSRWQQGNVFSCSVMHEALHNHYTQKSLSLSPGK
Consider B5, for which the dissociation rate constant (koff) with C1q was 0.107 s⁻¹; in test [4], 0.095 s⁻¹; with FcγRIIIA 158V, soluble, 0.105 s⁻¹; with FcγRIIIA 158F, soluble, 0.296 s⁻¹; in the test with 2bfcagl (FcγRIIB-Fc), 0.078 s⁻¹; in test [5], 0.024 s⁻¹.

B6: ch4-4-20 K288M, K334E (antibody)
chain 1: not shown
chain 2: DVVMTQTPLSLPVSLGDQASISCRSSQSLVHSNGNTYLRWYLQKPGQSPKVLIYKVSNRFSGVPDRFSGSGSGTDFTLKISRVEAEDLGVYFCSQSTHVPWTFGGGTKLEIKRTVAAPSVFIFPPSDEQLKSGTASVVCLLNNFYPREAKVQWKVDNALQSGNSQESVTEQDSKDSTYSLSSTLTLSKADYEKHKVYACEVTHQGLSSPVTKSFNRGEC
Turning to B6, the “ELISA binding increase vs wt” value with FcγRIIIA [6] was 3 x. The “ELISA IIIA binding vs wt” value in the test with FcγRIIIA [1] was found to be 3 X. Moreover, the Kd in [7] turned out to be 75.4 nM; in test [8], 95.6 nM; in [9], 75.4 nM. Besides, the off-rate (koff) in test [7] turned out to be 0.1 s⁻¹; in test [8] it was 0.089 s⁻¹; in test [9], 0.1 s⁻¹. This molecule also gave a kon in test [7] of 1.37e+06 M⁻¹ s⁻¹. Also, the “ELISA, OD” value is 1.1 OD in the test with FcγRIIIA [2] and 0.13 OD in [10].

B7: ch4-4-20 Mut23 (antibody)
chain 1: not shown
chain 2: DVVMTQTPLSLPVSLGDQASISCRSSQSLVHSNGNTYLRWYLQKPGQSPKVLIYKVSNRFSGVPDRFSGSGSGTDFTLKISRVEAEDLGVYFCSQSTHVPWTFGGGTKLEIKRTVAAPSVFIFPPSDEQLKSGTASVVCLLNNFYPREAKVQWKVDNALQSGNSQESVTEQDSKDSTYSLSSTLTLSKADYEKHKVYACEVTHQGLSSPVTKSFNRGEC
In [7], B7 yielded an equilibrium dissociation constant (Kd) of 70.2 nM, a koff of 0.105 s⁻¹ and a kon of 1.43e+06 M⁻¹ s⁻¹. Moreover, the “ELISA, OD” value with FcγRIIIA [2] is 1.25 OD. The “ELISA, OD” value in [10] is 0.1 OD.

The koff is a measure of how fast the partners let go of each other. A high value points to fast dissociation. The term Kd denotes the free concentration of one partner at which half of the binding sites on the other are occupied at equilibrium, for simple one-to-one binding. A higher Kd goes with a looser complex. Usually kon stands for the rate constant with which the complex forms.
